Laboratory results as given in patent US20220025003A1, “REAGENTS AND METHODS FOR CONTROLLING PROTEIN FUNCTION AND INTERACTION” (University of Washington, priority 2018, published 2022).

Assays:
[1] = system: NS3a in NIH3T3 cells; test: Confocal microscopy for colocalization analysis (fixed cells); format: cell-based; conditions: 10 μM drug, 1 h
Experimental: A Leica SP8× system was used for confocal microscopy. […] TagBFP emission was recorded on a PMT detector, and EGFP and mCherry™ were detected by separate HyD™ detectors.
Colocalization experiments were performed in NIH3T3 cells (Flp-In-3T3, Thermo Fisher Scientific). For fixed-cell experiments, cells were plated at 3×10^4 cells/mL on sterile glass coverslides placed in 12-well culture plates. […] One day after transfection, cells were treated with drug or DMSO and fixed. Drug additions were performed by exchanging the media for DMEM+10% v/v FBS plus drug. To fix, cells were washed once with DPBS (Thermo Fisher Scientific), then incubated with 4% v/v paraformaldehyde in DPBS for 15 minutes. After washing twice with DPBS, coverslides with cells were removed from the plate and mounted on glass slides using Fluoromount-G (SouthernBiotech).
Colocalization of NS3a and DNCR1 at the plasma membrane, nucleus, mitochondria and Golgi was performed with two sets of constructs, with either NS3a or DNCR1 as the immobilized component. mCherry™-NS3a was used with Tom20-DNCR1-EGFP, DNCR1-EGFP-Giantin, and 3×NLS-DNCR1-EGFP. […] Colocalization was analyzed after 1 h of 10 μM drug or equal volume DMSO treatment.
All images were analyzed using ImageJ. […] EGFP fluorescence was quantified in the ROI over the timecourse. […] The cytoplasmic fluorescence was normalized to the value in the first and last frame for each cell. […]

[2] = molecular target: T1, NS3a/grazoprevir complex (Hepatitis C virus genotype 1a, UniProt P27958, C1073S/C1078L/C1185S/I1043Q/I1044E/I1098T/L1039E/L1040E/L1047Q/L1179I/N1200S/P1112Q/Q1106K/T1100M/T1173A); test: Yeast surface display binding and titration
T1 construct: made in house; host or cells: E. coli BL21 (DE3), pDW363 with BirA
Excerpt: (§1) ; these sorts are denoted as “avid” below. […] See FIG. 30a for yeast gating strategies.
(§2) […]. Curves were fit using Graphpad Prism 5 to a one-site specific binding model with Hill coefficient.

[3] = molecular target: T2, NS3a/danoprevir complex (Hepatitis C virus genotype 1a, UniProt P27958, C1073S/C1078L/C1185S/I1043Q/I1044E/I1098T/L1039E/L1040E/L1047Q/L1179I/N1200S/P1112Q/Q1106K/T1100M/T1173A); test: Yeast surface display binding and titration
T2 construct: made in house; host or cells: E. coli BL21 (DE3), pDW363 with BirA
Excerpt: as §1, §2

[4] = molecular target: T3, NS3a/asunaprevir complex (Hepatitis C virus genotype 1a, UniProt P27958, C1073S/C1078L/C1185S/I1043Q/I1044E/I1098T/L1039E/L1040E/L1047Q/L1179I/N1200S/P1112Q/Q1106K/T1100M/T1173A); test: Yeast surface display binding and titration
T3 construct: made in house; host or cells: E. coli BL21 (DE3), pDW363 with BirA
Excerpt: as §1, §2

B1: DNCR1: danoprevir/NS3a complex reader 1, intermediate-affinity variant, SEQ ID NO: 9 (protein)
chain: SSDEEEARELIERAKEAAERAQEAAERTGDPRVRELARELKRLAQEAAEEVKRDPSSSDVNEALKLIVEAIEAAVDALEAAERTGDPEVRELARELVRLAVEAAEEVQRNPSSSDVNEALLSIVIAIEAAVHALEAAERTGDPEVRELARELVRLAVEAAEEVQRNPSSREVEHALMKIVLAIYEAEESLREAEESGDPEKREKARERVREAVERAEEVQRDPSGWLNH
In the case of B1, the “Colocalization of DNCR1-EGFP and NS3a-mCherry” value [1] is reported as “functional binding specificity for the danoprevir/NS3a complex”, the Kd ([2]; apparent, yeast-displayed design, NS3a/grazoprevir complex, read-out: KD (nM) ± standard deviation) is reported as 2900 ± 100 nM and the Fold drug specificity ([2]; danoprevir/NS3a over grazoprevir/NS3a) is reported as 15 fold. For the same molecule, the Kd ([3]; apparent, yeast-displayed design, NS3a/danoprevir complex, read-out: KD (nM) ± standard deviation) was 190 ± 10 nM, the “binding to NS3a/danoprevir complex” value ([3]; yeast surface display) was “high nanomolar affinity” and the Kd ([4]; apparent, yeast-displayed design, NS3a/asunaprevir complex, read-out: KD (nM) ± standard deviation) was 6300 ± 2600 nM. It also gave a Fold drug specificity ([4]; danoprevir/NS3a over asunaprevir/NS3a) of 33 fold.
